Data: PMC9514091 (2022)

B1: host PD-L1-Fc fusion protein (Fc fusion)
chain: FTITVPKDLYVVEYGSNVTLECRFPVDKQLNLLALVVYWEMEDKKIIQFVNGEEDLNVQHSSYNQRALLLKNQLPLGKAALQITDVKLQDAGIYCCLISYGGADYKRITLKVNASYRKINQTISVDPVTSEHELMCQAEGYPEAEVIWTSSDHRVLSGKTTITSSKREEKLFNVTSTLRINTTANEIFYCIFRRLGHEENSTAELV
B2: host PD-1-Fc fusion protein (Fc fusion)
chain: LDAPSRPWSPLTFSPARLTVPEGANATFTCSFSSKPEHFVLNWYRMSPSNQTDKLAAFPEDRSQPGRDRRFHVTPLPGGRHFHMSIMAAQRNDSGVYFCGAIYLPPKTQINESRPAELT

Key:
[1] = target: B2; assay: SPR
De2-Fc fusion protein = De2-Fc fusion protein (Tursiops truncatus gammaherpesvirus 1); assay: SPR

| Binder | koff [1] [s⁻¹] | koff (De2-Fc fusion protein) [s⁻¹] |
| --- | --- | --- |
| B1 | 0.000488 |  |
| B2 |  | 0.000696 |
